From the supplement of paper PMC10065799, “High-throughput profiling of sequence recognition by tyrosine kinases and SH2 domains using bacterial peptide display” (eLife, 2023)

Experiments:
[1] = target: Grb2 SH2 (UniProt P62993); test: SH2 binding enrichment of the phosphorylated peptide, bacterial display (enrichment ratio); higher = better substrate or ligand; peptides without Tyr show the background
[2] = target: SHP2-C SH2; test: as above
[3] = target: c-Src SH2; test: as above
[4] = target: Fes (UniProt P07332); test: phosphorylation enrichment, bacterial display (enrichment ratio); higher = better substrate or ligand; peptides without Tyr show the background
[5] = test system: Fer (mouse); test: as above
[6] = target: Jak2 (UniProt O60674); test: as above
[7] = target: MERTK (UniProt Q12866); test: as above
[8] = test system: c-Src; test: as above
[9] = target: Hck (UniProt P08631); test: as above
[10] = target: FGFR3 (UniProt P22607); test: as above
[11] = test system: c-Abl (mouse); test: as above
[12] = target: Fyn (UniProt P06241); test: as above
[13] = target: FGFR1 (UniProt P11362); test: as above
[14] = target: EPHB2 (UniProt P29323); test: as above
[15] = target: EPHB1 (UniProt P54762); test: as above
[16] = test system: AncSZ; test: as above
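Throughout, for SH2 binding enrichment of the phosphorylated peptide, bacterial display: peptide library displayed on the E. coli surface as eCPX fusions, selected cells deep-sequenced, score is each peptide's frequency after selection divided by its frequency in the input.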
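Throughout, for phosphorylation enrichment, bacterial display: 11-residue human phosphosite peptides and single-mutation variants displayed on the E. coli surface, counted by deep sequencing, each peptide's frequency after selection divided by its frequency in the unselected input library; frequency after pTyr selection over input frequency; kinase dosed for 20-30% of maximal phosphorylation in three min.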

EPHB2, sequence (P29323 whole entry, looked up): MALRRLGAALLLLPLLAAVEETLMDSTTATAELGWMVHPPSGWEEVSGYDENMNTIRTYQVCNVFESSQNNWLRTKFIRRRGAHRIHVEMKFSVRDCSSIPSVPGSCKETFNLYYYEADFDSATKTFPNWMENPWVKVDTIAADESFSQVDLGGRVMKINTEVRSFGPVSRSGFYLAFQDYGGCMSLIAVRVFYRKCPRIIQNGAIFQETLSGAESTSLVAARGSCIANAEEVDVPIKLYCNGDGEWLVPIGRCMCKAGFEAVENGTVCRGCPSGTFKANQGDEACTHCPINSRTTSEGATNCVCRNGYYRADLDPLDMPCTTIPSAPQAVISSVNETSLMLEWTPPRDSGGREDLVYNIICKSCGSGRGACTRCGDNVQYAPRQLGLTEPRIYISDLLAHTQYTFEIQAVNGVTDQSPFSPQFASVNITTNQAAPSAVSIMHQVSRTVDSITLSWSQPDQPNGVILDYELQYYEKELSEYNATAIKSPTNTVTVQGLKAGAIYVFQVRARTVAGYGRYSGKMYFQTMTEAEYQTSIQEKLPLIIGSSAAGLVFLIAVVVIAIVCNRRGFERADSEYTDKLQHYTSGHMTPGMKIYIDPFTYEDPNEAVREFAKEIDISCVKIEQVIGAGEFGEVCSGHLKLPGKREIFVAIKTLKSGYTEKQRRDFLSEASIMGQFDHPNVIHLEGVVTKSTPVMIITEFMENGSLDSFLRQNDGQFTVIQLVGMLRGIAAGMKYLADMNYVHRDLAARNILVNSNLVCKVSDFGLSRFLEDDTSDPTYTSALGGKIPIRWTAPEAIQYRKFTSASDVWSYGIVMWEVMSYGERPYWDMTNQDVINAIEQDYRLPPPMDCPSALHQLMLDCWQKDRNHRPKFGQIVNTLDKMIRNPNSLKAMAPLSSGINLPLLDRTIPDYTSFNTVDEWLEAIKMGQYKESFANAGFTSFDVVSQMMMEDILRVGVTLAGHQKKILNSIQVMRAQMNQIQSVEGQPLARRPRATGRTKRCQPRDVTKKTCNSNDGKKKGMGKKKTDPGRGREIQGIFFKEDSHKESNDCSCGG
Fes, sequence (P07332 whole entry, looked up): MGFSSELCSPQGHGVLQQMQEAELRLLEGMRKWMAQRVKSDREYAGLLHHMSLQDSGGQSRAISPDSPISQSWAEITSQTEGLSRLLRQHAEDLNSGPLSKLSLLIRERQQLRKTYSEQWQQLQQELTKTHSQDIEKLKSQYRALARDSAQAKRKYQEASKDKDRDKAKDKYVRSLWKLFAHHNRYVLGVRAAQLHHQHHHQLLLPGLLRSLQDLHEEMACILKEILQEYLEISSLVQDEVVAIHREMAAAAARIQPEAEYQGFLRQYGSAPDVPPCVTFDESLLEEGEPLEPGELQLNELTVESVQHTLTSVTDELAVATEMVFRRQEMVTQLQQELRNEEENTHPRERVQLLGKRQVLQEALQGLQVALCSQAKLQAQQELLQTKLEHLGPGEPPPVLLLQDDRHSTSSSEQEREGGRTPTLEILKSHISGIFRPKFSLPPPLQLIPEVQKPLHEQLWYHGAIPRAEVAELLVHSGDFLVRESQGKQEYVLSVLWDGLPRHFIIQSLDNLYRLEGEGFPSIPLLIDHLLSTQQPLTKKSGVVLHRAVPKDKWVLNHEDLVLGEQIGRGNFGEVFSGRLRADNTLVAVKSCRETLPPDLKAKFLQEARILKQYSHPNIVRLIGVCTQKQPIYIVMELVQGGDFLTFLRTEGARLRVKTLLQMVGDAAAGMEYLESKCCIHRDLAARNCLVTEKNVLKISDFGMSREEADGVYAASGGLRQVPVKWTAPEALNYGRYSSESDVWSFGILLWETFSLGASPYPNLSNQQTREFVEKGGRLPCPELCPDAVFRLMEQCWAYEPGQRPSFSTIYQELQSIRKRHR
EPHB1, sequence (P54762 whole entry, looked up): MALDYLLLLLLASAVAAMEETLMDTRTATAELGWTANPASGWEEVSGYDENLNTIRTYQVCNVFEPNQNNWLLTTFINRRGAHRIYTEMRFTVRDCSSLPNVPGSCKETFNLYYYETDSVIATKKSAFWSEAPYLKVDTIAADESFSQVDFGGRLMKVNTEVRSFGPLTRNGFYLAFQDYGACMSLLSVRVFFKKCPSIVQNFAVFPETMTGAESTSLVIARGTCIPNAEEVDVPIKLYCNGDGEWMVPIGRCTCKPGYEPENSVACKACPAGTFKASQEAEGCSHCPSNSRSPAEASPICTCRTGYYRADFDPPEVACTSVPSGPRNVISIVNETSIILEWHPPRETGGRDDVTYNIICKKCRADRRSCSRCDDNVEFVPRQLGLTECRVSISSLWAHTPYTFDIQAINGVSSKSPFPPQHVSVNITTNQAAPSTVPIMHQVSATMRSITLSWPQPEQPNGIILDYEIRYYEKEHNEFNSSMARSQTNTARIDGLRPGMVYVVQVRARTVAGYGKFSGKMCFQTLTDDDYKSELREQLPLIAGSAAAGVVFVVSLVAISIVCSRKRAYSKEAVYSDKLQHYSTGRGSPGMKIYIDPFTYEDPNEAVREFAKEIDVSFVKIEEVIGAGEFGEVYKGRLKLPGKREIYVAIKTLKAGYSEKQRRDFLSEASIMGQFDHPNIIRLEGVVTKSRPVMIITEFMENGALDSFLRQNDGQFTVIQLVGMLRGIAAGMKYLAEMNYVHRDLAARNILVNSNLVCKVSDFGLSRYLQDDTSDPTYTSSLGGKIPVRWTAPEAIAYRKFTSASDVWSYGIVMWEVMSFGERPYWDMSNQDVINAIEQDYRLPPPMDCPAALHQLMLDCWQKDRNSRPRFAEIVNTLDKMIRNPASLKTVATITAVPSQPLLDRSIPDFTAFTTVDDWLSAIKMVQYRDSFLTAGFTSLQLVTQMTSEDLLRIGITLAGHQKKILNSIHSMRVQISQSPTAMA
MERTK, sequence (Q12866 whole entry, looked up): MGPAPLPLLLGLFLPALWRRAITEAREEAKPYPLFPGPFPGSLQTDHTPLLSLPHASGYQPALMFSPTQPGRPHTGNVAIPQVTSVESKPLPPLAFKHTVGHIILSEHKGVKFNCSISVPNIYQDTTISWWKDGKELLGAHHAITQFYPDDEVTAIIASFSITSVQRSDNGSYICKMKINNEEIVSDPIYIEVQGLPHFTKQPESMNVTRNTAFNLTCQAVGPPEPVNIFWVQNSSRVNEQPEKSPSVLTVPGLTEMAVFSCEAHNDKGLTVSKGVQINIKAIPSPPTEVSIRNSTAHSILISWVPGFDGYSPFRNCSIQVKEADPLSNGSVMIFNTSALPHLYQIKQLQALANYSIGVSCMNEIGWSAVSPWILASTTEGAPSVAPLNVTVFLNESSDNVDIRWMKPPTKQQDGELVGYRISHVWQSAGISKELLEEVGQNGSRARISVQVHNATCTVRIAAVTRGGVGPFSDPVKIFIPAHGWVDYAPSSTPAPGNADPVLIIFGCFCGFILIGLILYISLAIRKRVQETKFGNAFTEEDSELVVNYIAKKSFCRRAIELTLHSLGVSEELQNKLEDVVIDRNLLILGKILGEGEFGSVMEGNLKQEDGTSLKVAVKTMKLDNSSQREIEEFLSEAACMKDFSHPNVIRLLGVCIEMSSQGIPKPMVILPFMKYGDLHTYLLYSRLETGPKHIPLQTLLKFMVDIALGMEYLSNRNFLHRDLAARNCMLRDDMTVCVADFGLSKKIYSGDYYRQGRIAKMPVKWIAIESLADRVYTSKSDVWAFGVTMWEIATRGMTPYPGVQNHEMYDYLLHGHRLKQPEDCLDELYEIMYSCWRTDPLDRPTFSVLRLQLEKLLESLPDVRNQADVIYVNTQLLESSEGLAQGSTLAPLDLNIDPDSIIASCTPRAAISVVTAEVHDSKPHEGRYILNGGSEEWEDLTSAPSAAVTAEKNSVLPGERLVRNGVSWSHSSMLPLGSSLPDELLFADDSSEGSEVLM
Fyn, sequence (P06241 whole entry, looked up): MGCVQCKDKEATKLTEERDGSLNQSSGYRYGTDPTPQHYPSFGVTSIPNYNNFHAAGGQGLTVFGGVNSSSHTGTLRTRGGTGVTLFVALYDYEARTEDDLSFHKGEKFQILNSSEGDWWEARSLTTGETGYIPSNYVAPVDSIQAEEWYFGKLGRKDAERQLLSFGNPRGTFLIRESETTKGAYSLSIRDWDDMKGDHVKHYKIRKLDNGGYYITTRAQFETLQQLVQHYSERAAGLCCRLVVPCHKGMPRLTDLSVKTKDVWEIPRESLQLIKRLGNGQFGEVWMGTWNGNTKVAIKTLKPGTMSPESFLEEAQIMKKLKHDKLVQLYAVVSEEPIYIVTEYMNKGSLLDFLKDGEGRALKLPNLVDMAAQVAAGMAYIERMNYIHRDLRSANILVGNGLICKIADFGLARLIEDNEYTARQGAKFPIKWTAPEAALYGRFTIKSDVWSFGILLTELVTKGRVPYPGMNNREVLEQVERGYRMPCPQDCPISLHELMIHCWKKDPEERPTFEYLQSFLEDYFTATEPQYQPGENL
Hck, sequence (P08631 whole entry, looked up): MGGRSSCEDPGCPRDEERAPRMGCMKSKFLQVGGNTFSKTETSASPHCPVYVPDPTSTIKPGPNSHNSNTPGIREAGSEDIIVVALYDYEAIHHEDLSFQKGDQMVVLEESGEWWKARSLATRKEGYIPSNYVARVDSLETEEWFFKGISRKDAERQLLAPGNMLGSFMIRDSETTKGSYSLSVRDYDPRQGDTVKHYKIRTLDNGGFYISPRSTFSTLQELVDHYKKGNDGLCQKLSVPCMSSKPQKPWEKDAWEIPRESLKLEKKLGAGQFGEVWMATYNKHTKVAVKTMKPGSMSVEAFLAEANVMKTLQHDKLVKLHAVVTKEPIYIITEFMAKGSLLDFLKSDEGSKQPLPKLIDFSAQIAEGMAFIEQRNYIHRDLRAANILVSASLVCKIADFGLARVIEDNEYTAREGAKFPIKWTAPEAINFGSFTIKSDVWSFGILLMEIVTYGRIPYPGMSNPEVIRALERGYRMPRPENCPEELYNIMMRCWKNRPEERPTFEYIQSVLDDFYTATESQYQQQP

SH2 binding enrichment [1]	SH2 binding enrichment [2]	SH2 binding enrichment [3]	Sequence	phosphorylation enrichment [4]	phosphorylation enrichment [5]	phosphorylation enrichment [6]	phosphorylation enrichment [7]	phosphorylation enrichment [8]	phosphorylation enrichment [9]	phosphorylation enrichment [10]	phosphorylation enrichment [11]	phosphorylation enrichment [12]	phosphorylation enrichment [13]	phosphorylation enrichment [14]	phosphorylation enrichment [15]	phosphorylation enrichment [16]
0.85	5.59	1.12	PQDVTYARLHS [LILRB4_Y412_Q414R]	1.51	0.786	0.518	0.735	2.3	4.33	0.603	0.842	1.91	0.774	0.797	0.808	0.757
1.07	0.495	0.498	RRIFSYRGHLW [VHL_Y112_H110Y_YF]	0.897	0.536	0.587	0.6	0.905	0.712	0.619	1.1	0.763	0.731	0.541	0.47	0.834
0.845	0.724	0.511	AHLTEYLSTHY [UQCRC1_Y219_D215H]	0.639	0.371	0.647	0.464	0.453	0.517	0.585	0.475	0.402	0.475	0.396	0.462	0.716

Continued, sequence first:

Sequence	SH2 binding enrichment [1]	SH2 binding enrichment [2]	SH2 binding enrichment [3]	phosphorylation enrichment [4]	phosphorylation enrichment [5]	phosphorylation enrichment [6]	phosphorylation enrichment [7]	phosphorylation enrichment [8]	phosphorylation enrichment [9]	phosphorylation enrichment [10]	phosphorylation enrichment [11]	phosphorylation enrichment [12]	phosphorylation enrichment [13]	phosphorylation enrichment [14]	phosphorylation enrichment [15]	phosphorylation enrichment [16]
AAVNGYVFGGG [ECHS1_Y137_A138V]	0.791	0.994	0.489	0.542	0.414	0.591	0.401	0.461	0.429	0.629	0.582	0.404	0.437	0.398	0.419	0.596
GRTGHYLCNAC [GATA1_Y223_D218G]	1.25	0.872	0.917	0.631	0.32	0.446	0.481	0.296	0.392	0.433	0.375	0.332	0.436	0.287	0.4	0.445
AFGTVYKGLWI [EGFR_Y727]	0.857	1.3	0.628	1.13	0.511	1.16	0.39	0.619	0.525	0.755	0.724	0.593	0.517	0.587	0.532	1.2
MECLPYGSLRD [JAK2_Y934_Y931C]	0.785	0.468	0.467	1.29	0.669	1.07	0.409	1.65	0.711	0.794	0.75	0.753	0.522	0.577	0.598	1.08
GLAELYEFKKK [CKAP5_Y1854_YF]	2.2	0.864	0.533	0.705	0.43	0.619	0.381	0.665	0.559	0.48	0.451	0.554	0.487	0.348	0.307	0.534
